Results as given in paper PMC7666158, “Co-regulation of the transcription controlling ATF2 phosphoswitch by JNK and p38” (Nature Communications, 2020).

Assays:
pp-p38 (activated, …) [1] = target: T1, pp-p38 (activated, double-phosphorylated p38alpha) (human, UniProt Q16539 1-360, double-phosphorylated on the activation loop (pp-p38; T180/Y182 as named for the anti-pp-p38 antibody; pY182 in Fig. 5b)); assay: in vitro kinase assay fitted with a kinetic model; 5 nM pp-JNK or pp-p38, MBP-ATF2(19-100) substrate 0.5-100 uM, 5 mM ATP, kinase buffer; p-T71 and p-T69/T71 by quantitative dot-blots; binding rates (kon, koff) and reaction rates fitted simultaneously with the BioNetGen model (PyBioNetFit); details: both partners purified
T1 construct: human p38alpha (MAPK14), phosphorylated form; also called pp-p38α; source: E. coli, co-expressed with constitutively active GST-tagged MAP2Ks, purified

pp-p38 (activated, …) [2] = target: T1, pp-p38 (activated, …); assay: as above; details: both partners purified; remark: listed apart in the source

T1 sequence (Q16539 whole entry): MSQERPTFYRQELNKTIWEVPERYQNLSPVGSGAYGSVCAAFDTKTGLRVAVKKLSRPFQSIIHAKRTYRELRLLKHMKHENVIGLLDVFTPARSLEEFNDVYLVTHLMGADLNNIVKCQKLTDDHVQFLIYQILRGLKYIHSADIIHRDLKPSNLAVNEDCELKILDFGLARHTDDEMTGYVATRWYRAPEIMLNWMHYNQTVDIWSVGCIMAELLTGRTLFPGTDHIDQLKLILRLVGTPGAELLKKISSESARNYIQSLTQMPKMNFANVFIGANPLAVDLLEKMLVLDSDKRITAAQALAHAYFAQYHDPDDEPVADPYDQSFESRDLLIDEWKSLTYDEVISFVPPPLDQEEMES

B1: MBP-ATF2(19-100)-WT (domain or fragment, human, UniProt P15336-1 19-100, looked up)
chain: MSDDKPFLCTAPGCGQRFTNEDHLAVHKHKHEMTLKFGPARNDSVIVADQTPTPTRFLKNCEEVGLFNELASPFENEFKKAS
notes: A TEV site lies between MBP and ATF2; also called MBP-ATF2-His6; ATF2 TAD; source: E. coli BL21(DE3), purified (Ni-NTA, maltose resin); not shown: MBP, N-terminal, kept; His6, C-terminal, kept
Kd (pp-p38 (activated, …) [1]): ~25 µM | koff (pp-p38 (activated, …) [2]): 429 s⁻¹ | kon (pp-p38 (activated, …) [2]): 1.72e+07 M⁻¹ s⁻¹
